System: p120 catenin expressed from a transfected plasmid (exogenous p120, HA-tagged in Example 1)

## ZC1 kinase, over-expressed from a plasmid (active full-length ZC1)
  in vitro phosphorylation (32P-ATP, autoradiography): p120 immunoprecipitated from cells co-expressing ZC1 also showed phosphorylation of p120 in vitro by associated ZC1

— US20050276757
